This is an account of results in patent US5422104.

Bounds are passed on as bounds.

The target of experiment [1] is recombinant human p75-TNF-R-human IgGγ3 fusion protein (human) (UniProt P20333). The experiment can be described thus: calculated from FIG. 7: competition with 125I-TNFα on plates coated with receptor-IgGγ3 fusions; reference: the same mutein on p55-TNF-R-IgGγ3.
Experiment [2] deals with human p55-Tumor-Necrosis-Factor-Receptor on Hep-2 cells (human) (UniProt P19438).
Experiment [3] concerns the target human p75-Tumor-Necrosis-Factor-Receptor on U937 cells (human) (UniProt P20333). The experiment can be described thus: competition assay on U937 cells.
Experiment [4] has the same target. The experiment can be described thus: competition analysis on U937 cells.
Experiment [5] addresses native human p75-TNF-R purified from HL60 cells (human) (UniProt P20333). Nature of the experiment: competition with 125I-TNFα for p75-TNF-R.
Experiment [6] addresses human p75-Tumor-Necrosis-Factor-Receptor on U937 cells (human) (UniProt P20333). The experiment can be described thus: competition analysis, U937 cells against Hep-2 cells.
Experiment [7] shares this target. The experiment can be described thus: 125I-TNF-α competition, U937 cells, exp 1, mutant 1 × 10^-6 mol.
The target is the same in experiment [8]. The experiment can be described thus: 125I-TNF-α competition, U937 cells, exp 1, mutant 1 × 10^-9 mol.
The target is the same in experiment [9]. Nature of the experiment: 125I-TNF-α competition, U937 cells, exp 1, mutant 2 × 10^-6 mol.
Experiment [10] shares this target. The experiment can be described thus: 125I-TNF-α competition, U937 cells, exp 1, mutant 5 × 10^-7 mol.
Experiment [11] has the same target. Nature of the experiment: 125I-TNF-α competition, U937 cells, exp 1, mutant […] 10^-7 mol.
Experiment [12] shares this target. Nature of the experiment: 125I-TNF-α competition, U937 cells, exp 2, mutant 2 × 10^-6 mol.
Experiment [13] shares this target. Nature of the experiment: 125I-TNF-α competition, U937 cells, exp 2, mutant 3 × 10^-8 mol.
Experiment [14] has the same target. The experiment can be described thus: 125I-TNF-α competition, U937 cells, exp 2, mutant 5 × 10^-7 mol.
The target is the same in experiment [15]. Nature of the experiment: 125I-TNF-α competition, U937 cells, exp 2, mutant 6 × 10^-8 mol.
Experiment [16] shares this target. Nature of the experiment: 125I-TNF-α competition, U937 cells, exp 2, mutant 8 × 10^-9 mol.
Experiment [17] has the same target. The experiment can be described thus: 125I-TNF-α competition, U937 cells, exp 2, mutant […] 10^-7 mol.
Experiment [18] has the same target. The experiment can be described thus: 125I-TNF-α competition, U937 cells, exp 1, mutant 2 × 10^-9 mol.
The target is the same in experiment [19]. The experiment can be described thus: 125I-TNF-α competition, U937 cells, exp 1, mutant 3 × 10^-8 mol.
Experiment [20] shares this target. The experiment can be described thus: 125I-TNF-α competition, U937 cells, exp 1, mutant 4 × 10^-9 mol.
For experiment [21] the target is unchanged. The experiment can be described thus: 125I-TNF-α competition, U937 cells, exp 1, mutant 6 × 10^-8 mol.
The target is the same in experiment [22]. The experiment can be described thus: 125I-TNF-α competition, U937 cells, exp 1, mutant 8 × 10^-9 mol.
Experiment [23] shares this target. The experiment can be described thus: 125I-TNF-α competition, U937 cells, exp 2, mutant 1.2 × 10^-7 mol.
Experiment [24] shares this target. The experiment can be described thus: 125I-TNF-α competition, U937 cells, exp 2, mutant 1.5 × 10^-8 mol.
The target is the same in experiment [25]. Nature of the experiment: 125I-TNF-α competition, U937 cells, exp 1, mutant 1.5 × 10^-8 mol.
Experiment [26] has the same target. Nature of the experiment: 125I-TNF-α competition, U937 cells, exp 1, mutant 1.25 × 10^-7 mol.
For experiment [27] the target is unchanged. Nature of the experiment: 125I-TNF-α competition, U937 cells, exp 2, mutant 1.10^-6 as printed.
The target is the same in experiment [28]. Nature of the experiment: 125I-TNF-α competition, U937 cells, exp 2, mutant 4 × 10^9 as printed.
Experiment [29] shares this target. Nature of the experiment: 125I-TNF-α (batch 2) competition, U937 cells, exp 3, mutant 1 × 10^-6 mol.
For experiment [30] the target is unchanged. Nature of the experiment: 125I-TNF-α (batch 2) competition, U937 cells, exp 3, mutant 2 × 10^-6 mol.
The target is the same in experiment [31]. Nature of the experiment: 125I-TNF-α (batch 2) competition, U937 cells, exp 3, mutant 3 × 10^-8 mol.
The target is the same in experiment [32]. The experiment can be described thus: 125I-TNF-α (batch 2) competition, U937 cells, exp 3, mutant 4 × 10^-9 mol.
Experiment [33] has the same target. The experiment can be described thus: 125I-TNF-α (batch 2) competition, U937 cells, exp 3, mutant 5 × 10^-7 mol.
Experiment [34] shares this target. Nature of the experiment: 125I-TNF-α (batch 2) competition, U937 cells, exp 3, mutant 6 × 10^-8 mol.
Experiment [35] shares this target. The experiment can be described thus: 125I-TNF-α (batch 2) competition, U937 cells, exp 3, mutant 8 × 10^-9 mol.
For experiment [36] the target is unchanged. Nature of the experiment: 125I-TNF-α (batch 2) competition, U937 cells, exp 3, mutant […] 10^-7 mol.
The target is the same in experiment [37]. The experiment can be described thus: 125I-TNF-α (batch 2) competition, U937 cells, exp 3, mutant 1.5 × 10^-8 mol.
For experiment [38] the target is unchanged. Nature of the experiment: 125I-TNF-α (batch 2) competition, U937 cells, exp 3, mutant 1.25 × 10^-7 mol.
Experiment [39] has as its target native human p75-TNF-R purified from HL60 cells (human) (UniProt P20333). The experiment can be described thus: competition with 125I-TNFα for p75-TNF-R, calculated from FIG. 1 (and FIG. 7).
The target is the same in experiment [40]. The experiment can be described thus: from the IC50 values of Table F, competition with 125I-TNFα; reference: the same mutein on p55-TNF-R.
For experiment [41], the target named is human p75-Tumor-Necrosis-Factor-Receptor on U937 cells (human) (UniProt P20333). The experiment can be described thus: 125I-TNF-α competition, U937 cells, exp 1, mutant […] 10^-8 mol.
Experiment [42] has the same target. Nature of the experiment: 125I-TNF-α competition, U937 cells, exp 2, mutant 1 × 10^-6 mol.
For experiment [43] the target is unchanged. The experiment can be described thus: 125I-TNF-α competition, U937 cells, exp 2, mutant 4 × 10^-9 mol.
Experiment [44] shares this target. Nature of the experiment: 125I-TNF-α competition, U937 cells, exp 1, mutant 3.2 × 10^-8 mol.
For experiment [45] the target is unchanged. Nature of the experiment: 125I-TNF-α competition, U937 cells, exp 1, mutant 6.4 × 10^-8 mol.

UniProt P19438, sequence (P19438 30-455): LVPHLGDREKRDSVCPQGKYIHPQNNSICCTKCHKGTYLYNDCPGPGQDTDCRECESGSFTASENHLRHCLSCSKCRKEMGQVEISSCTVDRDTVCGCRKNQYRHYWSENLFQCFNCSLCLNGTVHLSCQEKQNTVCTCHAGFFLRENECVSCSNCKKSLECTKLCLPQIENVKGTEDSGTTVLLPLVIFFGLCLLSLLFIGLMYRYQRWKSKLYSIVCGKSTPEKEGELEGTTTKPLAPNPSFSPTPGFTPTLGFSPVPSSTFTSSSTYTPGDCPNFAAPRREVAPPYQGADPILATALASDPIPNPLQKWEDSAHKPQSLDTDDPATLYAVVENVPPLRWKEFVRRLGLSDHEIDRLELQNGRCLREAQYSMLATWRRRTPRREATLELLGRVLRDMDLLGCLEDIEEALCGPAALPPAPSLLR
UniProt P20333, sequence (P20333 other isoform, or with tags, fused parts or gaps): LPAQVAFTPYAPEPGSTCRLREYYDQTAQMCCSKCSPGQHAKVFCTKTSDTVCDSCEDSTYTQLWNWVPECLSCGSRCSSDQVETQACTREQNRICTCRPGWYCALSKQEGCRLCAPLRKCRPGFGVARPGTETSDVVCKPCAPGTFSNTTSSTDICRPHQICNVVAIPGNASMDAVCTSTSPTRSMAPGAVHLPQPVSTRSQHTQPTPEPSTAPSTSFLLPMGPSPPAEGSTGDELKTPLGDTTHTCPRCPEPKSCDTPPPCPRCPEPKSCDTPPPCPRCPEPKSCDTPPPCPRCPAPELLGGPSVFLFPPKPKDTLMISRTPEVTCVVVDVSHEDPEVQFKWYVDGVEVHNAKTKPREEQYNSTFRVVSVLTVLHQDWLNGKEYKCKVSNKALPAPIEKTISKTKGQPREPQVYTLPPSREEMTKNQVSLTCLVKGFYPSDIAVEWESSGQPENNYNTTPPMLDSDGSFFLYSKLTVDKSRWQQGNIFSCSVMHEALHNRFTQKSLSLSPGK

Turning to Tyr^29 -TNFα (ligand), the selectivity factor S (IC50 p75-TNF-R against IC50 p55-TNF-R) in experiment [1] was 110.
On the same count and under the same terms, the figure for Ser^29 -Trp^32 -TNFα (ligand) is 450; for Tyr^32 -TNFα (ligand) it is 90.
In turn, Trp^32 -TNFα (ligand) gave a specific activity (U/mg), cytotoxicity assay on Hep-2 cells in [2] of 4.5e+07 U/mg. Also, the specific activity on Hep-2 cells, relative value in percentage to TNF-α in [2] came to 155%. The increase in KD-value by a factor, against TNF-α in experiment [3] was over 100 fold. Moreover, in [4], the affinity, relative value in percentage to TNF-α was 0.71%. In [5], the Decrease in Affinity (with respect to TNFα) turned out to be 500. The fold reduction of binding affinity against its affinity to p55-TNF-R in [6] amounted to 33 fold. Further, the percent of its binding affinity to p55-TNF-R in [6] came to 3%. Also, the Mean dpm in [7] was 777 dpm; in [8] it was 1920 dpm; in experiment [9], 628 dpm; in [10] it was 953 dpm; in experiment [11], 1030 dpm; in experiment [12] it was 294 dpm. Further, the Mean dpm in [13] worked out at 585 dpm; in experiment [14], 422 dpm; in experiment [15], 546 dpm; in [16], 629 dpm; in experiment [17] it was 479 dpm; in [18], 1700 dpm. The Mean dpm in experiment [19] is 1380 dpm; in [20], 1660 dpm; in experiment [21], 1330 dpm; in experiment [22], 1580 dpm; in experiment [23], 508 dpm; in [24], 636 dpm. The Mean dpm in [25] is 1490 dpm; in experiment [26], 1170 dpm; in [27], 357 dpm; in experiment [28], 653 dpm; in experiment [29], 1190 dpm; in [30], 814 dpm. The Mean dpm in experiment [31] came to 3280 dpm; in [32] it was 4760 dpm; in experiment [33], 1470 dpm; in [34], 3030 dpm; in [35], 4040 dpm; in experiment [36], 1980 dpm. The Mean dpm in experiment [37] is 3620 dpm; in experiment [38], 2390 dpm. The IC50 (as a rule, the concentration needed to halve the response being measured) in [39] was 5 mg/L. Further, the selectivity factor S (IC50 p75-TNF-R against IC50 p55-TNF-R) in [40] was 294.
In the case of Gly^29 -TNFα (ligand), the selectivity factor S (IC50 p75-TNF-R against IC50 p55-TNF-R) in experiment [1] was 80.
For Ser^29 -TNFα (ligand), the specific activity (U/mg), cytotoxicity assay on Hep-2 cells in experiment [2] turned out to be 9.3e+06 U/mg. Further, the specific activity on Hep-2 cells, relative value in percentage to TNF-α in [2] was 32%. In [3], this substance yielded an increase in KD-value by a factor, against TNF-α of over 100 fold. The substance also had an affinity, relative value in percentage to TNF-α in [4] of 0.49%. In experiment [5], this substance registered a Decrease in Affinity (with respect to TNFα) of 250. The same substance registered a fold reduction of binding affinity against its affinity to p55-TNF-R in [6] of 50 fold. The percent of its binding affinity to p55-TNF-R in experiment [6] is 2%. For the same substance, the Mean dpm worked out at 632 dpm in experiment [7]; 1870 dpm in experiment [8]; 533 dpm in [9]; 949 dpm in experiment [10]; 983 dpm in experiment [11]; 1580 dpm in [41]. Also, the Mean dpm in experiment [42] was found to be 263 dpm; in [12] it was 238 dpm; in experiment [13], 572 dpm; in [43], 635 dpm; in [14], 319 dpm; in experiment [15], 489 dpm. For the same substance, the Mean dpm in [16] worked out at 603 dpm; in [17], 380 dpm; in experiment [18] it was 1780 dpm; in [20] it was 1720 dpm; in [22], 1710 dpm; in [44] it was 1420 dpm. Also, the Mean dpm in experiment [45] was found to be 1320 dpm; in [23], 413 dpm; in [24], 641 dpm; in experiment [26], 1200 dpm. In addition, the IC50 in experiment [39] was 2.5 mg/L. The selectivity factor S (IC50 p75-TNF-R against IC50 p55-TNF-R) in [40] came to 28.
